B5: GST-TPR (GST fusion protein of the TPR domains of KLC1, amino acids 167-541) (other, UniProt O88447 167-541, looked up)
chain: KDSDSSKEPLDDLFPNDEDEPGQGIQHSDSSAAAARQGYEIPARLRTLHNLVIQYASQGRYEVAVPSCKQALEDLEKTSGHDHPDVATMLNILALVYRDQNKYKDAANLLNDALAIREKTLGRDHPAVAATLNNLAVLYGKRGKYKEAEPLCKRALEIREKVLGKDHPDVAKQLNNLALLCQNQGKYEEVEYYYQRALGIYQTKLGPDRTPNVAKTKNNLASCYLKQGKFKQAETLYKEILTRAHEAEFGSVDDENKPIWMHAEEREECKGKQKDGSAFGEYGGWYKACKVDSPTVTTTLKNLGALYRRQGKFEAAETLEEAAMRSRKQGLDNVHKQRVAEVLNDPESMEKRRSRESLNMDVVKYESGPDGGEEA
notes: range 167-541; The range is printed without a hyphen (167541); not shown: glutathione S-transferase

Assay [1] has as its target B5. As to the kind of experiment: GST pull-down, Western blot for the His tag. As for the experimental part: (§1) Briefly, purified GST, GST-KLC1 and GST-KLC2 bound to glutathione agarose beads were incubated with 10 μg of indicated purified fusion protein in 150 μl Buffer B (20 mM Tris-Cl, pH 7.5, 50 mM KCl, 100 mM NaCl, 2 mM CaCl_2, 2 mM MgCl_2, 5 mM DTT, 1% BSA, and protease inhibitors) for 1 hr at 4° C. For the antibody inhibition experiments, the antibody was pre-bound to the beads for 1 hr at 4° C. and then incubated for 1 hr with the indicated protein. The unbound protein (in 150 μl total volume) was saved, and the beads were washed three times with Buffer B. Bound proteins were eluted with 50 μl of elution buffer (50 mM glutathione, 50 mM Tris-Cl, pH 8.0). The bound (50 μl) and unbound (50 μl, i.e., one-third of total volume) proteins were then analyzed by SDS-PAGE followed by Western blotting.
(§2) To test directly if the C-terminus of APP interacts with the TPR domains of KLC, GST pull-down assays were conducted using GST fusion proteins of KLC1 that contained either the TPR domains (GST-TPR) or only the N-terminal coiled-coil region (GST-CC) (See, FIG. 5, Panel E). Purified APP-GFP protein bound to GST-TPR and not to GST-CC or to GST alone. In contrast, a KIF5B construct that contains part of a region previously found to bind to KLC (Diefenbach et al., [1998], supra; and Gauger and Goldstein, [1993], supra) bound to GST-CC, and not to GST-TPR.
On the technique in general: A western blot detects proteins with antibodies after separation by electrophoresis.

Assay [2] deals with APP (amyloid precursor protein), endogenous, from mouse brain and sciatic nerve extracts (mouse, UniProt P12023 18-770, limits assumed). Kind of assay: co-immunoprecipitation from mouse brain and sciatic nerve extracts, Western blot. The source says: Mouse brain (left side of panel; IP brain) or sciatic nerve (right side of panel; Supe) extracts were immunoprecipitated with a no antibody control (No Ab), the 63–90 antibody (which recognizes both KLC1 and KLC2; i.e., kinesin light chains 1 and 2), antibodies to KIF5B (ubiquitous KHC), or APP (C-terminal polyclonal antibody) or synaptotagmin (SYT). Panel B provides results showing the specificity of kinesin-I co-immunoprecipitation with APP. Co-immunoprecipitation of APP with KLC from wild-type (wt) and mutant (−/−) KLC1 brain extracts was done using 63–90 or antibodies specific to either KLC1 or KLC2, and then analyzed by Western blots using either 63–90 or APP (22C11) antibodies. Panel C provides results showing KLC1 dependence of KHC complexes with APP. Co-immunoprecipitation of APP with KHC from wild-type (wt) and mutant (−/−) KLC1 brain extracts were performed using antibodies to three different KHC subunits (KIF5A, KIF5B and KIF5C), and then analyzed by Western blots using either 63–90 or APP (22C11) antibodies, as shown in this Panel. […]
Sufficient quantities of either anti-KLC1 and anti-KLC2 (Rahman et al., [1998], supra), or anti-KIF5A and anti-KIF5B antibodies (Niclas et al., Neuron 12:1059–1072 [1994]) were added to the precleared lysate so as to completely immunoprecipitate the antigens in the lysate. […]

Assay [3] deals with T1, GFP alone (UniProt P42212 1-238 = GFP, limits assumed).
T1 construct: Control
As to the kind of experiment: GST pull-down on glutathione agarose beads, Western blot for GFP; also under five buffer conditions. As for the experimental part: as §1
In addition, the binding of APP-GFP or GFP alone to either GST-KLC1 or GST using four other buffers than Buffer B, namely (1) Buffer B without Ca^2+, (2) Buffer B+500 mM NaCl+1% NP-40, (3) Buffer A from sucrose gradients (10 mM HEPES, pH 7.3, 0.5 mM EGTA, 0.5 mM EGTA, 0.5 mM MgCl_2, and (4) PBS (137 mM NaCl, 2.7 mM KCl, 4.3 mM Na_2HPO_4 7 H_2O, 1.4 mM KH_2PO_4) were tested.
To test for direct interactions between the cytoplasmic C-terminal domain of APP and KLC, in vitro binding assays using GST fusion proteins were conducted. […]

In assay [4] the target is T1, GFP alone. As to the kind of experiment: GST pull-down on glutathione agarose beads, Western blot for GFP. As for the experimental part:
as §1
To test for direct interactions between the cytoplasmic C-terminal domain of APP and KLC, in vitro binding assays using GST fusion proteins were conducted. The results are shown in FIG. 5, Panel A. GST fused to full-length KLC1 (GST-KLC1) or full-length KLC2 (GST-KLC2) was incubated with a protein consisting of the C-terminal tail of APP fused to GFP (APP-GFP). APP-GFP bound to both GST-KLC1 and GST-KLC2 but not to GST alone. […]

For assay [5], the target named is T1, GFP alone. As to the kind of experiment: GST pull-down, Western blot for GFP. As for the experimental part: as §1, §2
Assay [6] addresses T2, APP-GFP fusion protein (C-terminal 42 amino acids of human APP fused to GFP, from a His-tagged pRSETb-EGFP … (human, UniProt P05067 729-770; P42212 1-238 = GFP).
T2 construct: Expressed in bacteria, purified on Ni-NTA-agarose; also called C-terminal tail of APP fused to GFP; APP C-terminus; not shown: His tag and leader of the pRSETb vector
As to the kind of experiment: GST pull-down, Western blot for GFP. How it is done:
as §1, §2

B1: KIF5B-His fusion protein (amino acids 499-783 of KIF5B, His-tagged, pET-23b) (other, UniProt Q61768 499-783, looked up)
chain: AVNYDQKSQEVEDKTKEYELLSDELNQKSATLASIDAELQKLKEMTNHQKKRAAEMMASLLKDLAEIGIAVGNNDVKQPEGTGMIDEEFTVARLYISKMKSEVKTMVKRCKQLESTQTESNKKMEENEKELAACQLRISQHEAKIKSLTEYLQNVEQKKRQLEESVDSLGEELVQLRAQEKVHEMEKEHLNKVQTANEVKQAVEQQIQSHRETHQKQISSLRDEVEAKEKLITDLQDQNQKMVLEQERLRVEHERLKATDQEKSRKLHELTVMQDRREQARQDLK
notes: range 499-783; also called C-terminal stalk of KIF5B; KIF5B construct; not shown: His tag of vector pET-23b
As for B1, in assay [1], the binding result is “no binding”.

B2: synaptophysin, endogenous, mouse extracts (other, UniProt Q62277 1-314, looked up)
chain: MLLLADMDVVNQLVAGGQFRVVKEPLGFVKVLQWVFAIFAFATCGSYTGELRLSVECANKTESALNIEVEFEYPFRLHQVYFDAPSCVKGGTTKIFLVGDYSSSAEFFVTVAVFAFLYSMGALATYIFLQNKYRENNKGPMMDFLATAVFAFMWLVSSSAWAKGLSDVKMATDPENIIKEMPMCRQTGNTCKELRDPVTSGLNTSVVFGFLNLVLWVGNLWFVFKETGWAAPFMRAPPGAPEKQPAPGDAYGDAGYGQGPGGYGPQDSYGPQGGYQPDYGQPASGGGGGYGPQGDYGQQGYGQQGAPTSFSNQM
notes: also called SYP
Turning to B2, the binding result in assay [2] is listed as “no binding”.

B3: GST-KLC1 (glutathione S-transferase fused to kinesin light chain 1, all but the first seven amino acids) (other, UniProt O88447 8-541, looked up, not shown: a dimerising Fc or GST)
chain: MVYIKEEKLENVTQDEIISKTKQVIQGLEALKNEHNSILQSLLETLKCLKKDDESNLVEEKSSMIRKSLEMLELGLSEAQVMMALSNHLNAVESEKQNVRAQVRRLCQENQWLRDELANTQQKLQKSEQSVAQLEEEKKHLEFMNQLKKYDDDISPSEDKDSDSSKEPLDDLFPNDEDEPGQGIQHSDSSAAAARQGYEIPARLRTLHNLVIQYASQGRYEVAVPSCKQALEDLEKTSGHDHPDVATMLNILALVYRDQNKYKDAANLLNDALAIREKTLGRDHPAVAATLNNLAVLYGKRGKYKEAEPLCKRALEIREKVLGKDHPDVAKQLNNLALLCQNQGKYEEVEYYYQRALGIYQTKLGPDRTPNVAKTKNNLASCYLKQGKFKQAETLYKEILTRAHEAEFGSVDDENKPIWMHAEEREECKGKQKDGSAFGEYGGWYKACKVDSPTVTTTLKNLGALYRRQGKFEAAETLEEAAMRSRKQGLDNVHKQRVAEVLNDPESMEKRRSRESLNMDVVKYESGPDGGEEA
notes: range 8-end; also called GST fused to full-length KLC1
For B3, the binding result in the assay with GFP alone [3] was “no binding”.

B4: GST-KLC2 (glutathione S-transferase fused to kinesin light chain 2, 591 amino acids of the largest cDNA clone) (other, UniProt O88448 9-599, looked up, not shown: a dimerising Fc or GST)
chain: EEKLSQDEIVLGTKAVIQGLETLRGEHRALLAPLASHEAGEAEPGSQERCLLLRRSLEAIELGLGEAQVILALSSHLGAVESEKQKLRAQVRRLVQENQWLREELAGTQQKLQRSEQAVAQLEEEKQHLLFMSQIRKLDEMLPQEEKGDVPKDSLDDLFPNEDEQSPAPSPGGGDVAAQHGGYEIPARLRTLHNLVIQYASQGRYEVAVPLCKQALEDLEKTSGHDHPDVATMLNILALVYRDQNKYKDAAHLLNDALAIREKTLGKDHPAVAATLNNLAVLYGKRGKYKEAEPLCKRALEIREKVLGKFHPDVAKQLSNLALLCQNQGKAEEVEYYYRRALEIYATRLGPDDPNVAKTKNNLASCYLKQGKYQDAETLYKEILTRAHEKEFGSVNGENKPIWMHAEEREESKDKRRDRRPMEYGSWYKACKVDSPTVNTTLRTLGALYRPEGKLEAAHTLEDCASRSRKQGLDPASQTKVVELLKDGSGRGHRRGSRDVAGPQSESDLEESGPAAEWSGDGSGSLRRSGSFGKLRDALRRSSEMLVRKLQGGGPQEPNSRMKRASSLNFLNKSVEEPVQPGGRVFLTAAL
notes: also called GST fused to full-length KLC2
For the molecule B4, the binding result with GFP alone [4] is given as “no binding”.

In the case of B5, the binding result with GFP alone [5] is reported as “no binding”.

B6: GST-CC (GST fusion protein of the N-terminal coiled coil domain of KLC, amino acids 30-200) (other, UniProt O88447 30-200, looked up)
chain: QVIQGLEALKNEHNSILQSLLETLKCLKKDDESNLVEEKSSMIRKSLEMLELGLSEAQVMMALSNHLNAVESEKQNVRAQVRRLCQENQWLRDELANTQQKLQKSEQSVAQLEEEKKHLEFMNQLKKYDDDISPSEDKDSDSSKEPLDDLFPNDEDEPGQGIQHSDSSAAA
notes: range 30-200; not shown: glutathione S-transferase
On to B6, for which the binding result (in the assay with GFP alone [5]; in assay [6]) was “no binding” each time.

The values above are taken from patent US6673332 (University of California, dated 2004).
